This note sets out measurements from PMC2709974 (Journal of molecular biology, 2009).

T1: IscR-C92A/C98A/C104A (clusterless) (Escherichia coli, UniProt P0AGK8 1-162, C92A;C98A;C104A)
T1 sequence: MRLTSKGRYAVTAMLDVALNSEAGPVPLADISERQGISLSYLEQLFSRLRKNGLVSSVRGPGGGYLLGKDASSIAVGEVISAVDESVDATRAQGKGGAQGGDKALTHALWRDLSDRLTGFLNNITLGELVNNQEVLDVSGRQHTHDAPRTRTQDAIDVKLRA

T2: IscR wild-type (as purified, about 60% [2Fe-2S] occupied) (Escherichia coli, UniProt P0AGK8 1-162)
T2 sequence: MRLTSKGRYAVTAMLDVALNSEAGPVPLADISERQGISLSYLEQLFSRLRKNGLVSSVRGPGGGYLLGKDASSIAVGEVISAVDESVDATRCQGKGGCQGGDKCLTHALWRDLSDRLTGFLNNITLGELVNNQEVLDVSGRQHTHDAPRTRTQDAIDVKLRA

B1: randomized hya site, labeled 30-mer (dsDNA)
DNA 1: ATCATCCGTCTTATGTTAATTATAATGGTG
DNA 2: CACCATTATAATTAACATAAGACGGATGAT
B2: hyaA site, labeled 30-mer (dsDNA)
DNA 1: ATAAATCCACACAGTTTGTATTGTTTTGTG
DNA 2: CACAAAACAATACAAACTGTGTGGATTTAT
B3: IscR-C92A/C98A/C104A (natural protein, Escherichia coli, UniProt P0AGK8 1-162, looked up)
chain: MRLTSKGRYAVTAMLDVALNSEAGPVPLADISERQGISLSYLEQLFSRLRKNGLVSSVRGPGGGYLLGKDASSIAVGEVISAVDESVDATRAQGKGGAQGGDKALTHALWRDLSDRLTGFLNNITLGELVNNQEVLDVSGRQHTHDAPRTRTQDAIDVKLRA
B4: wild-type IscR (as purified, 35% occupied with [2Fe-2S] cluster) (natural protein, Escherichia coli, UniProt P0AGK8 1-162, looked up)
chain: MRLTSKGRYAVTAMLDVALNSEAGPVPLADISERQGISLSYLEQLFSRLRKNGLVSSVRGPGGGYLLGKDASSIAVGEVISAVDESVDATRCQGKGGCQGGDKCLTHALWRDLSDRLTGFLNNITLGELVNNQEVLDVSGRQHTHDAPRTRTQDAIDVKLRA
B5: apo-IscR (generated from wild-type IscR by treatment with 2,2'-dipyridyl) (natural protein, Escherichia coli, UniProt P0AGK8 1-162, looked up)
chain: MRLTSKGRYAVTAMLDVALNSEAGPVPLADISERQGISLSYLEQLFSRLRKNGLVSSVRGPGGGYLLGKDASSIAVGEVISAVDESVDATRCQGKGGCQGGDKCLTHALWRDLSDRLTGFLNNITLGELVNNQEVLDVSGRQHTHDAPRTRTQDAIDVKLRA
B6: hya -55 (A to C) (dsDNA)
DNA 1: ATCAATCCACACAGTTTGTATTGTTTTGTG
DNA 2: CACAAAACAATACAAACTGTGTGGATTGAT
B7: hya -51 (dsDNA)
DNA 1: ATAAATGCACACAGTTTGTATTGTTTTGTG
DNA 2: CACAAAACAATACAAACTGTGTGCATTTAT
B8: hya -44,-43 (dsDNA)
DNA 1: ATAAATCCACACATGTTGTATTGTTTTGTG
DNA 2: CACAAAACAATACAACATGTGTGGATTTAT
B9: hya -42,-41 (dsDNA)
DNA 1: ATAAATCCACACAGTGGGTATTGTTTTGTG
DNA 2: CACAAAACAATACCCACTGTGTGGATTTAT
B10: hya -53,-52 (dsDNA)
DNA 1: ATAATCCCACACAGTTTGTATTGTTTTGTG
DNA 2: CACAAAACAATACAAACTGTGTGGGATTAT
B11: hya -47 (dsDNA)
DNA 1: ATAAATCCACTCAGTTTGTATTGTTTTGTG
DNA 2: CACAAAACAATACAAACTGAGTGGATTTAT
B12: hya -39 (dsDNA)
DNA 1: ATAAATCCACACAGTTTGAATTGTTTTGTG
DNA 2: CACAAAACAATTCAAACTGTGTGGATTTAT
B13: hya -48(C to T) (dsDNA)
DNA 1: ATAAATCCATACAGTTTGTATTGTTTTGTG
DNA 2: CACAAAACAATACAAACTGTATGGATTTAT
B14: Palindrome1-2 (dsDNA)
DNA 1: ATAAATCCATACAGTTTGTATGGATTTGTG
DNA 2: CACAAATCCATACAAACTGTATGGATTTAT
B15: hya -54,-48,-45,-37 (dsDNA)
DNA 1: ATATATCCAGACTGTTTGTAATGTTTTGTG
DNA 2: CACAAAACATTACAAACAGTCTGGATATAT
B16: hya -41 (dsDNA)
DNA 1: ATAAATCCACACAGTTAGTATTGTTTTGTG
DNA 2: CACAAAACAATACTAACTGTGTGGATTTAT
B17: hya -32,-30 (dsDNA)
DNA 1: ATAAATCCACACAGTTTGTATTGTTATCTG
DNA 2: CAGATAACAATACAAACTGTGTGGATTTAT
B18: Palindrome1 (dsDNA)
DNA 1: ATAAATACATACAGTTTGTATGTATTTGTG
DNA 2: CACAAATACATACAAACTGTATGTATTTAT
B19: hya -40 (dsDNA)
DNA 1: ATAAATCCACACAGTTTCTATTGTTTTGTG
DNA 2: CACAAAACAATAGAAACTGTGTGGATTTAT
B20: hyaA competitor (dsDNA)
DNA 1: ATAAATCCACACAGTTTGTATTGTTTTGTG
DNA 2: CACAAAACAATACAAACTGTGTGGATTTAT
B21: hya -34/33 (dsDNA)
DNA 1: ATAAATCCACACAGTTTGTATTGAATTGTG
DNA 2: CACAATTCAATACAAACTGTGTGGATTTAT
B22: hya -46 (dsDNA)
DNA 1: ATAAATCCACATAGTTTGTATTGTTTTGTG
DNA 2: CACAAAACAATACAAACTATGTGGATTTAT
B23: hya -36(T to A) (dsDNA)
DNA 1: ATAAATCCACACAGTTTGTATAGTTTTGTG
DNA 2: CACAAAACTATACAAACTGTGTGGATTTAT
B24: hya -35 (dsDNA)
DNA 1: ATAAATCCACACAGTTTGTATTTTTTTGTG
DNA 2: CACAAAAAAATACAAACTGTGTGGATTTAT
B25: hya -31 (dsDNA)
DNA 1: ATAAATCCACACAGTTTGTATTGTTTGGTG
DNA 2: CACCAAACAATACAAACTGTGTGGATTTAT
B26: hya -44,-42,-41,-40 (dsDNA)
DNA 1: ATAAATCCACACATTGGTTATTGTTTTGTG
DNA 2: CACAAAACAATAACCAATGTGTGGATTTAT
B27: hya -50(C to A) (dsDNA)
DNA 1: ATAAATCAACACAGTTTGTATTGTTTTGTG
DNA 2: CACAAAACAATACAAACTGTGTTGATTTAT
B28: hya -36(T to G) (dsDNA)
DNA 1: ATAAATCCACACAGTTTGTATGGTTTTGTG
DNA 2: CACAAAACCATACAAACTGTGTGGATTTAT
B29: hya -49 (dsDNA)
DNA 1: ATAAATCCTCACAGTTTGTATTGTTTTGTG
DNA 2: CACAAAACAATACAAACTGTGAGGATTTAT
B30: hya -36(T to C) (dsDNA)
DNA 1: ATAAATCCACACAGTTTGTATCGTTTTGTG
DNA 2: CACAAAACGATACAAACTGTGTGGATTTAT
B31: hya -42 (dsDNA)
DNA 1: ATAAATCCACACAGTATGTATTGTTTTGTG
DNA 2: CACAAAACAATACATACTGTGTGGATTTAT

The first series concerns the target T1, IscR-C92A/C98A/C104A (clusterless). Briefly: fluorescence anisotropy.
Consider B1, for which the binding result is on record as “no binding”.

The next series deals with T2, IscR wild-type (as purified, about 60% …). Put plainly: fluorescence anisotropy. On the technique in general: In fluorescence polarisation assays a small probe gives low polarisation when free and higher when bound to something large.
With B2, the Kd (commonly the free concentration of one partner at which half of the binding sites on the other are occupied at equilibrium, for simple one-to-one binding) is 34 ± 2 nM.

The next series concerns the molecule itself. Briefly: AUC.
As for B3, the stoichiometry N – broadly, the number of molecules, sites or subunits per partner or assembly – is 2.

The next series has as its target T2, IscR wild-type (as purified, about 60% …). Briefly: fluorescence anisotropy. This is another data set of the same source.
Consider B1, for which the binding result was “no binding”.

In a further series the target is T1, IscR-C92A/C98A/C104A (clusterless). Put plainly: fluorescence anisotropy. This is another data set of the same source.
For the molecule B2, the dissociation constant (Kd) came to 44 ± 3 nM.

A further series concerns the molecule itself. Briefly: SEC.
As to B4, the “stoichiometry N” value was 2. Regarding B5, the “stoichiometry N” value stood at 2.

The target of another series is T1, IscR-C92A/C98A/C104A (clusterless). Put plainly: competition.
Take B6: the IC50 (commonly the concentration that inhibits the measured activity by half) was 394 nM. Turning to B7, the half-maximal inhibitory concentration (IC50) came out at 400 nM. B8 returned a 50% inhibitory concentration (IC50) of 89 nM.

On to B9, for which the 50% inhibitory concentration (IC50) was 300 nM. Still for that read-out and setting: for B10 the value was 33 nM; for B11, 190 nM.

Regarding B12, the concentration for half-maximal inhibition (IC50) stood at 199 nM. As for B13, the half-inhibitory concentration (IC50) worked out at 48 nM. Same read-out and setting: next, B14: approximately 10 nM; B15: 80 nM.

In the case of B16, the IC50 is 34 nM. Still for that read-out and setting: for B17 the value was 18 nM; for B18, 202 nM.

Consider B19, for which the IC50 worked out at 39 nM. As to B20, the IC50 is 29 nM. B21 yielded an IC50 of 39 nM. B22 gave a 50% inhibitory concentration (IC50) of 37 nM. B23 came in with an IC50 of 52 nM. With B24, the IC50 stood at 505 nM. This IC50 is about 9.7-fold higher than that of the molecule before. B25 yielded an IC50 of 263 nM. B26 gave an IC50 of 785 nM. This IC50 is about 3-fold higher than that of the molecule before.

B27: the IC50 worked out at 268 nM.

Molecule B28 came in with an IC50 of 16 nM. Compared with the last molecule, the IC50 is about 17-fold lower. Consider B29, for which the IC50 is 44 nM.

B30 had a half-maximal inhibitory concentration (IC50) of 134 nM. On the same count and under the same terms, next, B31: 73 nM.
